Target: VEGFR-1 expressed in rat cavernous smooth muscle cells (CSMC) (rat) (UniProt P53767)
Assay: cell-based or functional assay

Chain of VEGFR-1 expressed in rat cavernous smooth muscle cells (CSMC) (rat) (P53767 23-1336): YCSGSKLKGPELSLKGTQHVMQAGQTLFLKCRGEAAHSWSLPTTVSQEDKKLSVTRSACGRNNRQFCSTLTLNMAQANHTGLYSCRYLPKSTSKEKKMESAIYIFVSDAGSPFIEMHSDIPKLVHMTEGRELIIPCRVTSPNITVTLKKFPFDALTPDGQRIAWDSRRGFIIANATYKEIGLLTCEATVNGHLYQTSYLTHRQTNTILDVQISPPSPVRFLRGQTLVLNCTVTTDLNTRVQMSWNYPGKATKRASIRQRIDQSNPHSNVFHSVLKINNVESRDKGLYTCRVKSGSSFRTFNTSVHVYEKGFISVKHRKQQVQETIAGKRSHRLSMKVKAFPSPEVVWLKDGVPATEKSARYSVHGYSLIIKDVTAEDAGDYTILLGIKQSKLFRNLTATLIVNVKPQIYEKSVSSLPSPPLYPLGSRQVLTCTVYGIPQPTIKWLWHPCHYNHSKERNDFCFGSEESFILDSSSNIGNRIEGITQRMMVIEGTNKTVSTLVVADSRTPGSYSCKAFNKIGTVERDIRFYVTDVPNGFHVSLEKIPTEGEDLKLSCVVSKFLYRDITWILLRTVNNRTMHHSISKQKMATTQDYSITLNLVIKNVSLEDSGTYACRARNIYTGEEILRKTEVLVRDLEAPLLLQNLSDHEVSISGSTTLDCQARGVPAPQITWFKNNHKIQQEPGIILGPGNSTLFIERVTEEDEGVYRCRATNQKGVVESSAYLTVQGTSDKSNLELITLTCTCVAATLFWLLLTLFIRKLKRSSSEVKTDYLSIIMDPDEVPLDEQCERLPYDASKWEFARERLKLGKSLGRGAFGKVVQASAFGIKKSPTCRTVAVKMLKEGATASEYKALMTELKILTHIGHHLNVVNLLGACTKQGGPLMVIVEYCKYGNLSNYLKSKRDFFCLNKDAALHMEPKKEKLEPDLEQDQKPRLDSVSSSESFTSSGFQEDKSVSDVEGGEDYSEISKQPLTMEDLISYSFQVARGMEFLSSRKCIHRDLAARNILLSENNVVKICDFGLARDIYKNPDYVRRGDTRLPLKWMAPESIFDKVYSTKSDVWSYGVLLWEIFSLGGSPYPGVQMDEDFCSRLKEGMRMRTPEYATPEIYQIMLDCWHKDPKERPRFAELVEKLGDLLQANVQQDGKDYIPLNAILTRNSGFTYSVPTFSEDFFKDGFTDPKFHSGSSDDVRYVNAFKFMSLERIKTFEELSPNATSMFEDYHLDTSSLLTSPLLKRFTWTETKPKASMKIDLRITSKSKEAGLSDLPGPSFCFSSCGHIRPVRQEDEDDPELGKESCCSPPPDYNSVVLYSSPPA

Recombinant human VEGF165 (from UniProt P15692 27-191) (ligand)
migration of rat CSMC (Transwell, 4 hr); optimal VEGF concentration: 10 ng/mL | proliferation of rat CSMC (CellTiter-96, OD490nm, 3 days); optimal VEGF concentration: 12.5 ng/mL

Reference: US20030096747A1
